In IntAct's records for PubMed 11741956:

B1: Proto-oncogene tyrosine-protein kinase LCK (Mus musculus), P06240 (parent)
chain: MGCVCSSNPEDDWMENIDVCENCHYPIVPLDSKISLPIRNGSEVRDPLVTYEGSLPPASPLQDNLVIALHSYEPSHDGDLGFEKGEQLRILEQSGEWWKAQSLTTGQEGFIPFNFVAKANSLEPEPWFFKNLSRKDAERQLLAPGNTHGSFLIRESESTAGSFSLSVRDFDQNQGEVVKHYKIRNLDNGGFYISPRITFPGLHDLVRHYTNASDGLCTKLSRPCQTQKPQKPWWEDEWEVPRETLKLVERLGAGQFGEVWMGYYNGHTKVAVKSLKQGSMSPDAFLAEANLMKQLQHPRLVRLYAVVTQEPIYIITEYMENGSLVDFLKTPSGIKLNVNKLLDMAAQIAEGMAFIEEQNYIHRDLRAANILVSDTLSCKIADFGLARLIEDNEYTAREGAKFPIKWTAPEAINYGTFTIKSDVWSFGILLTEIVTHGRIPYPGMTNPEVIQNLERGYRMVRPDNCPEELYHLMMLCWKERPEDRPTFDYLRSVLDDFFTATEGQYQPQP

Variants of: B1
Settings: with cbl_human CBL

effect of a mutation on the interaction | Variant
decreasing interaction | W97A
